Values quoted from earlier work, collected in paper PMC2794832 (Journal of nuclear medicine : official publication, Society …, 2008).

Tested on: tumors of HEK cells stably transfected to express only SSTR2
Settings: mouse, in vivo

**Q.** For “^111In-1,4,7,10-tetraazacyclododecane-1,4,7,10-tetraacetic acid-sst2-ANT [^111In-DOTA-sst2-ANT]”, which “uptake of the radiopharmaceutical in tumors” value is on record?
**A.** high uptake
